Source: patent publication US20050064507A1, “Determining kinase specificity” (priority 2003, published 2005)

Tests used:
PKC-epsilon = molecular target: T1, PKC-epsilon (Homo sapiens, UniProt Q02156); assay: In vitro kinase assay: peptide phosphorylation by PKC-epsilon; format: biochemical; details: for PKC-epsilon phosphorylation: normalized to best substrate; for phosphorylation by PKC epsilon: peptide concentration 1 uM
T1 construct: purchased Calbiochem
T1 sequence (Q02156 1-737): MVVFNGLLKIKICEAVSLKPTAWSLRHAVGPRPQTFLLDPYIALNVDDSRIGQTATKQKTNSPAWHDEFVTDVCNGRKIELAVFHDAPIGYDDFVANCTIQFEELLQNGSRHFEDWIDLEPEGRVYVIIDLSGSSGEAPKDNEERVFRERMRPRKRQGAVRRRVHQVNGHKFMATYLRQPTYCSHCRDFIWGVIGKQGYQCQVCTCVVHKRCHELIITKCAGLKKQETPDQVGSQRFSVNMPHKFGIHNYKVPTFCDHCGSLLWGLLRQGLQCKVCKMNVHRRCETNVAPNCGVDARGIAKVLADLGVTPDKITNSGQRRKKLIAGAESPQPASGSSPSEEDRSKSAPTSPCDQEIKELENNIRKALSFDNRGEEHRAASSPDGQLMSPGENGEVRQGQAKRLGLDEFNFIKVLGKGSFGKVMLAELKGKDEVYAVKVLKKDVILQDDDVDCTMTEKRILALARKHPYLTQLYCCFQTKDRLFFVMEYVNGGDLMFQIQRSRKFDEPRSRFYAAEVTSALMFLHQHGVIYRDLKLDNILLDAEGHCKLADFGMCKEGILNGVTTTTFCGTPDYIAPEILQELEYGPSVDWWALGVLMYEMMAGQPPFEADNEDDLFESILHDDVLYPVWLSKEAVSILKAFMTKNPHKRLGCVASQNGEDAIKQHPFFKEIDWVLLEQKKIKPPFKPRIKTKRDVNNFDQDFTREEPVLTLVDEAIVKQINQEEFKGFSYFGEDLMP
Protocol: Catalytically active preparations of the kinases of interest were either purchased or prepared. Purchased and tested active kinase preparations including the following: PKC-alpha, PKC-delta, PKC-epsilon, PKC-zeta, PKC-mu, PKA, PKG from Calbiochem, ROK alpha/ROCK-II, active from Upstate Biotechnology, and AKT1 from Panvera.
The conditions of the kinase assay and the amount of active kinase used varied with the kinase and with the accuracy needed. For a typical experiment, 5-20 ng of kinase was used per well and each peptide pool was assayed in duplicate wells. Note that the absolute amount of kinase used was not usually a critical parameter, because the desired information related to specificity of the kinase not its absolute activity, and robustness of the assay depends on comparisons of the same amount of kinase on different peptides. The combination of kinase concentration and assay duration was modified to assure that the stoichiometry of peptide phosphorylation never exceeded 5%. The choice of kinase buffer depended on the kinase being analyzed. For studies of PKC, 100 mM HEPES, 0.05% Triton-X100, 1 mM CaCl2, 20 mM MgCl2, 0.2 mg/ml phosphatidyl serine (Avanti Polar Lipids), PMA 100 ng/ml was typically used. The lipid stock was prepared by transferring 3 mg phosphatidyl serine into iced mixture of 450 μl water plus 50 μl of 10% Triton-X100, sonicating 10 times on ice for 1 sec each.
The kinase reaction mixture was assembled by sequential addition to a tube held on ice of: 5 μl peptide (100 μM for final concentration of 10 μM), 15 μl of kinase (typically 5 ng/well, in appropriate kinase buffer), 30 μl of ATP (1 uCi/well of ^32P-gamma ATP in a stock of 167 μM cold ATP in the kinase buffer; for final concentration for 100 μM ATP). The mixture was rapidly warmed to desired reaction temperature (30° C. for PKC) and incubated for the desired duration (usually 10 minutes). The kinase assay was terminated by transfer to 4° C. water batch, and rapid addition of an equal volume (50 μl) of stop solution [0.1M ATP+0.1M EDTA in water, pH 8].
The peptides were then captured from the reaction mixture by transfer to a Reacti-Bind Streptavidin High Binding Capacity Coated Plates (HBC) (Pierce Biotechnology) as follows. The HBC plates were pre-rinsed three times with PBS/Tween PBS/Tween20 0.05% (PBS/Tween). Part of all of the reaction mixture was then transferred wells of a HBC plate pre-filled with 90 μl of phosphate-buffered saline (PBS); typically each aliquots of each phosphorylation reaction were transferred to duplicate HBC plates to assure accuracy by additional replication
For kinase assays done at the standard peptide concentration of 10 μM, the peptide concentration in the reaction mixture becomes 5 μM after addition of the stop solution; consequently 10 μl of the reaction (50 pMoles of peptide) was transferred to the HBC plate. More generally, the amount of reaction mixture transferred was estimated to be about 50 pMoles of peptide. […] The HBC plates were incubated for 0.5 to 1.5 hr at room temperature for complete binding of biotinylated peptides to plate-bound streptavidin. The HBC plates were then washed extensively with PBS/Tween. Five washes were done routinely and additional wash steps were added if the wash solution removed from the plate had measurable radioactivity as detected using a Geiger counter. This step is essential to obtaining a good the signal to noise ratio because the fraction of radioactivity incorporated in the peptides was a tiny fraction of the total in the reaction mixture. The wells were air-dried. A volume of 40-50 μl of microScint-20 (Packard Instruments) was added to each well. The plates were covered with stick-on film sheet. Radioactive emissions were measured in a TopCount NXT Microplate Scintillation and Luminescence Counter (Packard Instruments). Typically samples were counted for 5 minutes (or more) to improve the signal to noise ratio when counts were low. […]

PKC-delta = molecular target: T2, PKC-delta (Homo sapiens, UniProt Q05655); assay: In vitro kinase assay: peptide phosphorylation by PKC-delta; format: biochemical
T2 construct: purchased Calbiochem
T2 sequence (Q05655 whole entry): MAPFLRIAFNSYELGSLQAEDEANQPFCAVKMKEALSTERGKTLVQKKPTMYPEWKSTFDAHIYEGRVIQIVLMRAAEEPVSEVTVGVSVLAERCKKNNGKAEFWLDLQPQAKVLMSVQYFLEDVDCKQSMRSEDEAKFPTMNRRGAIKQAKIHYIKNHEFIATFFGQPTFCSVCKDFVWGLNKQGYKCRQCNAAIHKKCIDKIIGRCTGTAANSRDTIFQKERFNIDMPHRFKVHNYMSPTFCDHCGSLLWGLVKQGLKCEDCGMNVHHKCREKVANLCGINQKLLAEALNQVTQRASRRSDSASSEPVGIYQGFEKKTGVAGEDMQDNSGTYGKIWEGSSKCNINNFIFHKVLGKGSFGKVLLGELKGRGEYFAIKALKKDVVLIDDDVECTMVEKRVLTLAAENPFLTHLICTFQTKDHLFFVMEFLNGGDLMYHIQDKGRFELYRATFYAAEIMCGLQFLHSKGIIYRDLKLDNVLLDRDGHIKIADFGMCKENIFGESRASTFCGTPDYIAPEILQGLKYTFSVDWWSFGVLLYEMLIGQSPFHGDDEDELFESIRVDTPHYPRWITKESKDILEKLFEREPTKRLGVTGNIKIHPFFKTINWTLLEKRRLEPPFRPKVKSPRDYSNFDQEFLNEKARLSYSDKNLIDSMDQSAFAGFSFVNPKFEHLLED
In short: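 Biotin-Lys-dansyl-Lys-Pro-Pro-Gly-linked proteomic peptides (12–21-residue core) phosphorylated by PKC-delta in HEPES/Triton/CaCl2/MgCl2 buffer with phosphatidyl serine and PMA, 100 μM [γ-32P]ATP, 30° C., ~10 min, stoichiometry ≤5%; streptavidin-plate capture. Signal normalized as % of best peptide substrate.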

Substance	PKC-epsilon phosphorylation (PKC-epsilon) [%]	phosphorylation by PKC-delta (PKC-delta; peptide concentration 1 uM)	phosphorylation by PKC-delta (PKC-delta; peptide concentration 10 uM)	phosphorylation by PKC epsilon (PKC-epsilon)
81 (KRERKTSSKSSVRKRR) [compound 81]	59			
87 (RQGKRKTSIKRDTVNPL) [compound 87]	31			
88 (KKPFKLSGLSFKRNRKE) [compound 88]	44			
91 (VHYTSKDTLRKRHYWR) [compound 91]	49			
97 (KKRSSKKEASMKKVVRP) [compound 97]	16			
98 (AGPLRKSSLKKGGRL) [compound 98]	34			
148 (RELEQLKAEYLERRASRRRA) [compound 148]		27	14	33
149 (RVVQSVKHTKRKSSTVMK) [compound 149]		20	17	27
150 (VDPFYEMLAARKKRISVKKK) [compound 150]		34	20	20
151 (PQNSLKASNRKKKRTSFKRK) [compound 151]		27	37	24
152 (DLIEGRKGAQIVKRASLKRG) [compound 152]		35	18	25
153 (TYLLPDKSRQGKRKTSIKRD) [compound 153]		32	26	24
